This is an account of results in the Immune Epitope Database (IEDB).

The target of one assay is HLA-B*18:01. The experiment in a line: IEDB peptide-MHC binding, purified MHC/competitive/radioactivity; filed as Kd, often an IC50 or EC50 that approximates it; ≥ and ≤ were set here for values at or beyond the usual limits of such assays.
For assay [1], the target named is HLA-B*40:01. The assay is described as above.
The next assay concerns the target HLA-B*40:02. The description is as above.
The target of a further assay is HLA-B*44:02. The assay is described as above.
The next assay deals with HLA-B*44:03. The assay is described as above.
Another assay addresses HLA-B*45:01. The description is as above.
In another assay the target is HLA-B*51:01. The experiment in a line: IEDB peptide-MHC binding, purified MHC/competitive/fluorescence; filed as Kd, often an IC50 or EC50 that approximates it; ≥ and ≤ were set here for values at or beyond the usual limits of such assays. The note with it: source organism: Salmonella enterica subsp. enterica serovar Typhi.
For assay [2], the target named is HLA-B*15:01. Described as above. The conditions noted are these: source organism: Yersinia pestis Angola.
For a further assay, the target named is HLA-A*24:03. The experiment in a line: IEDB peptide-MHC binding, purified MHC/direct/fluorescence; filed as Kd, often an IC50 or EC50 that approximates it; ≥ and ≤ were set here for values at or beyond the usual limits of such assays.
Another assay addresses HLA-A*01:01. Described as above. The conditions noted are these: source organism: Corynebacterium glutamicum.
A further assay concerns the target HLA-A*02:01. The assay is described as above. The note with it: source organism: Corynebacterium glutamicum.
The target of the next assay is HLA-A*03:01. The assay is described as above. The conditions noted are these: source organism: Corynebacterium glutamicum.
Another assay deals with HLA-A*11:01. The description is as above. The conditions noted are these: source organism: Corynebacterium glutamicum.
Another assay deals with HLA-A*26:01. The description is as above. The conditions noted are these: source organism: Corynebacterium glutamicum.
For the next assay, the target named is HLA-A*31:01. The assay is described as above. The note with it: source organism: Corynebacterium glutamicum.
The target of a further assay is HLA-A*69:01. The assay is described as above. The note with it: source organism: Corynebacterium glutamicum.
Another assay addresses HLA-B*07:02. Described as above. The conditions noted are these: source organism: Corynebacterium glutamicum.
For a further assay, the target named is HLA-B*08:01. Described as above. The note with it: source organism: Corynebacterium glutamicum.
Assay [3] has as its target HLA-B*15:01. Described as above. The conditions noted are these: source organism: Corynebacterium glutamicum.
For another assay, the target named is HLA-B*27:05. The assay is described as above. The conditions noted are these: source organism: Corynebacterium glutamicum.
In assay [4] the target is HLA-B*40:01. The description is as above. The note with it: source organism: Corynebacterium glutamicum.
A further assay has as its target HLA-B*58:01. Described as above. The note with it: source organism: Corynebacterium glutamicum.
Where [5] appears, read: source organism: SARS coronavirus Tor2.
Setting [6] is: source organism: Mammarenavirus machupoense.
[7] abbreviates: source organism: Mammarenavirus lassaense.

Broadly, the Kd is the concentration at which binding is half-saturated. In the case of LEWLAEVVKL, the Kd in the assay with HLA-B*18:01 (setting [5]) was 1240 nM; in the assay with HLA-B*40:01 [1] (setting [5]) it was 104 nM; in the assay with HLA-B*40:02 (setting [5]), not below 20100 nM; in the assay with HLA-B*44:02 (setting [5]) it was 9310 nM; in the assay with HLA-B*44:03 (setting [5]) it was 7240 nM; with HLA-B*45:01 (setting [5]) it was 9160 nM.
In turn, NPLWPFETV showed a Kd with HLA-B*51:01 of 229 nM.
For the sequence RELLKSLSGL, the Kd in the assay with HLA-B*18:01 (setting [6]) was not below 70400 nM; with HLA-B*40:01 [1] (setting [6]), 877 nM; with HLA-B*40:02 (setting [6]), 61.2 nM; with HLA-B*44:02 (setting [6]), not below 22500 nM; with HLA-B*44:03 (setting [6]), not below 23300 nM; with HLA-B*45:01 (setting [6]) it was not below 70000 nM.
Consider REVGDTSSDL, for which the equilibrium dissociation constant (Kd) with HLA-B*18:01 (setting [7]) is not below 70400 nM; in the assay with HLA-B*40:01 [1] (setting [7]) it was 11500 nM; in the assay with HLA-B*40:02 (setting [7]), 1360 nM; in the assay with HLA-B*44:02 (setting [7]) it was not below 24500 nM; with HLA-B*44:03 (setting [7]) it was not below 24800 nM; with HLA-B*45:01 (setting [7]), not below 70000 nM.
For the sequence RIYHEFLSL, the Kd with HLA-B*15:01 [2] came out at 97.5 nM.
For the sequence SEETGTLIV, the Kd is not below 50500 nM with HLA-B*18:01 (setting [5]); 1930 nM in the assay with HLA-B*40:01 [1] (setting [5]); 7260 nM with HLA-B*40:02 (setting [5]); not below 50100 nM with HLA-B*44:02 (setting [5]); not below 27600 nM with HLA-B*44:03 (setting [5]); 121 nM with HLA-B*45:01 (setting [5]).
Turning to SELVIGAVII, the Kd with HLA-B*18:01 (setting [5]) was not below 47200 nM; in the assay with HLA-B*40:01 [1] (setting [5]) it was 684 nM; with HLA-B*40:02 (setting [5]) it was 1180 nM; with HLA-B*44:02 (setting [5]), 1690 nM; with HLA-B*44:03 (setting [5]), 827 nM; with HLA-B*45:01 (setting [5]) it was 1900 nM.
Consider TEKSNVVRG, for which the Kd with HLA-B*18:01 (setting [5]) is not below 77500 nM; with HLA-B*40:01 [1] (setting [5]) it was not below 42700 nM; with HLA-B*40:02 (setting [5]) it was not below 50300 nM; with HLA-B*44:02 (setting [5]), 11900 nM; with HLA-B*44:03 (setting [5]), not below 78200 nM; in the assay with HLA-B*45:01 (setting [5]), not below 31800 nM.
Take TEQFLCYAL: the Kd amounted to 21 nM with HLA-B*18:01 (setting [6]); 10600 nM with HLA-B*40:01 [1] (setting [6]); 8.88 nM with HLA-B*40:02 (setting [6]); 143 nM with HLA-B*44:02 (setting [6]); 1500 nM with HLA-B*44:03 (setting [6]); 26.6 nM with HLA-B*45:01 (setting [6]).
In the assay with HLA-A*24:03 (source organism: Giardia lamblia ATCC 50803), TVQKDGMYF had a Kd of 460 nM.
For VLPVPGASV, the Kd was not below 20000 nM in the assay with HLA-A*01:01; 63.7 nM in the assay with HLA-A*02:01; not below 20000 nM in the assay with HLA-A*03:01; not below 20000 nM with HLA-A*11:01; not below 20000 nM in the assay with HLA-A*24:03 (source organism: Corynebacterium glutamicum); not below 20000 nM with HLA-A*26:01. In addition, the dissociation constant (Kd) was not below 20000 nM with HLA-A*31:01; not below 20000 nM in the assay with HLA-A*69:01; 10300 nM with HLA-B*07:02; not below 20000 nM with HLA-B*08:01; 3810 nM with HLA-B*15:01 [3]; not below 20000 nM with HLA-B*27:05. Further, the Kd with HLA-B*40:01 [4] and in the assay with HLA-B*58:01 was not below 20000 nM each time.
Turning to YECLYRNRDV, the Kd in the assay with HLA-B*18:01 (setting [5]) is not below 70500 nM; with HLA-B*40:01 [1] (setting [5]) it was 2410 nM; in the assay with HLA-B*40:02 (setting [5]), 1720 nM; with HLA-B*44:02 (setting [5]) it was 5550 nM; in the assay with HLA-B*44:03 (setting [5]), 10300 nM; in the assay with HLA-B*45:01 (setting [5]) it was 2510 nM.
For the sequence YEQYIKWPWY, the Kd was 79.3 nM with HLA-B*18:01 (setting [5]); 1220 nM with HLA-B*40:01 [1] (setting [5]); 7600 nM with HLA-B*40:02 (setting [5]); 41.6 nM in the assay with HLA-B*44:02 (setting [5]); 119 nM in the assay with HLA-B*44:03 (setting [5]); 518 nM in the assay with HLA-B*45:01 (setting [5]).
